We go through four molecules from patent US20080311122A1 (AstraZeneca / MedImmune, published 2008).

The target of assay [1] is T1, recombinant HMG1 purified from E. coli as a calmodulin binding protein (CBP) fusion protein (human, UniProt A9RA84 1-215 (Papio anubis entry)).
T1 construct: also called rHMG1; rHMGB1
T1 sequence: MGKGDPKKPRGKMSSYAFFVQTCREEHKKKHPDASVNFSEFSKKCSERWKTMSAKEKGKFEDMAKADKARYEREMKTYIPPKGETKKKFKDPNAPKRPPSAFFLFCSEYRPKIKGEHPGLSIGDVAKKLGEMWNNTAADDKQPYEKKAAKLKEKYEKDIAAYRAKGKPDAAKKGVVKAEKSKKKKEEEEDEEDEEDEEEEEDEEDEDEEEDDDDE
The experiment in a line: ELISA, rHMG1 preincubated with antibody, coated RAGE-Fc. How it is done:
HMG1 binding to RAGE-Ig by ELISA: 50 μl/well of RAGE-Fc fusion protein at 5 μg/ml in PBS was added to each well of an ELISA plate and incubated overnight at 4° C. The plate was then blocked with 200 μl of 5% milk at 37° C. for 1 hr and washed 3× with PBS/Tween. 50 μl/well of diluted HMGB1 solution. For dose curves, HMGB1 concentrations started at 4 ug/ml in PBS. For antibody blocking the HMGB1 was preincubated in another plate with human anti-HMG1 antibodies or buffer, then transferred to the RAGE-coated plate. The plates were then incubated at room temperature for 2 hours and washed 3×. To detect any HMG1 bound to the immobilized RAGE-Fc a mixture of biotinylated mouse anti-HMG1 mAbs (10D4, 4H11, 3E10 and 5C12) each at 1 ug/ml, total Ab: 4 ug/ml, were added to each well and the plate was incubated for 1 hour at room temperature. The plate was then washed and Strepavidin-HPR was added to each well and incubated 15 min. The plate was then washed 3× and blotted dry. 100 μl of TMB developing agent was added and the plate read at 650 nm. Values were calculated as percent of inhibition with HMG1 alone equal to 0% inhibition. The data in FIG. 9 and summarized in Table 1 represent the average of two separate experiments.
A general note: ELISA stands for enzyme-linked immunosorbent assay.

Assay [2] deals with T2, HMG1 purified from bovine (calf) thymus (bovine, UniProt P10103 2-215).
T2 construct: also called Calf thymus HMGB1; thymus HMG1
T2 sequence (looked up): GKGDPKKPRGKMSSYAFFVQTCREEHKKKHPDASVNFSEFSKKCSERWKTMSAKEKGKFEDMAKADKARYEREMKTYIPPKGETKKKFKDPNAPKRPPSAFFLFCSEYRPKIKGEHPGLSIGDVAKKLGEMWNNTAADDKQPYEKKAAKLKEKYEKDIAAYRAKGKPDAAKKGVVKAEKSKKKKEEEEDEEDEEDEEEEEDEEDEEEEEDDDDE
The experiment in a line: ELISA, wells coated with calf thymus HMGB1 at 5 ug/mL, antibody at 10 ug/mL, anti-human kappa/lambda-HRP, OD 490. The procedure, abridged:
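Calf thymus HMGB1 or HMGB2 coated at 5 ug/mL in 10 mM PBS pH 7.2 overnight at 4 °C; anti-HMGB1 antibody added at 10 ug/mL final in PBS + 1% BSA, 1 h at room temperature. Detection with HRP anti-human kappa plus lambda (1:1000, 1 h), OPD substrate 20-30 min in the dark, H₂SO₄ stop, absorbance 490 nm.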

Assay [3] concerns the target T1, recombinant HMG1 purified from E. coli …. The experiment in a line: BIAcore, mAb immobilized, HMG1 injected, steady-state model. The procedure, abridged: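 Each mAb amine-coupled to a CM5 chip beside a reference flow cell. Twofold serial dilutions of recombinant HMG1 were injected at slow flow, and surfaces regenerated with 1M NaCl-50 mM NaOH. Affinity was derived from binding curves fitted to a steady-state model.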
(Surface plasmon resonance follows binding to a sensor surface in real time, without labels.)

Assay [4] has as its target T3, HMG2 (UniProt P40673 2-209, limits assumed).
T3 construct: also called HMGB2; HMBG2
T3 sequence (looked up): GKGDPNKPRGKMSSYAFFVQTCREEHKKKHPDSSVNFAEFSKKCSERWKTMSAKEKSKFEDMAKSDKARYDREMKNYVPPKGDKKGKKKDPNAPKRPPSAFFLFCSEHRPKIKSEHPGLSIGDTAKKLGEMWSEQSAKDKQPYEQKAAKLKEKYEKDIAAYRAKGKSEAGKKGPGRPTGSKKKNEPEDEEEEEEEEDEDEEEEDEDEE
Description: ELISA, wells coated with HMGB2 at 5 ug/mL, OD 490. How it is done:
Binding to HMG1 vs. HMG2: Ultra high-binding ELISA plates (ThermoLab systems, #3855) were coated with either 5 ug/mL of Calf thymus HMGB1 or HMBG2 diluted in 10 mM Phosphate buffered saline (PBS), pH 7.2 and incubate overnight at 4 degrees. The plates were washed twice with Ca and Mg free PBS and 100 microliters of anti-HMGB1 antibody diluted in 10 mM PBS, pH 7.2+1% bovine serum albumin (BSA) to a final concentration of 10 ug/mL was added to each well and the plates were incubated 1 hour at room temperature. The wells were washed three times with 100 μl of PBS, pH 7.2. HRP labeled goat-anti-human IgG Kappa-chain (KPL, #14-10-10) and goat-anti-human IgG Lambda-chain (KPL, #14-10-11) were diluted in 10 mM PBS+1% BSA 1:1000 and 100 μl were added to each well and incubated for 1 hour at room temperature. The wells were then washed three times with 100 μl of PBS, pH 7.2. OPD substrate (Pierce chemical company, #34006) was prepared following the manufacturers instructions and 100 μl of prepared substrate was added to each well and the plates incubated at room temperature in the dark for 20-30 minutes. The reaction was stopped with the addition of 100 μl of 2M H₂SO₄, and the plates read on a plate reader at a wavelength of 490 nm.

The target of assay [5] is T4, HMG1 B Box peptide amino acids 150-183.
T4 peptide: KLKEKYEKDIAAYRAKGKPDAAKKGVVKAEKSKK
Description: ELISA, wells coated with HMG1 B Box peptide 150-183 at 10 ug/ml. The procedure, abridged: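 Biotinylated peptides captured on avidin-coated wells (1% BSA block, 30 min, room temperature), then antibodies added in serial dilution from 10 μg/ml; for the coated-peptide format, plates blocked with 4% milk/PBS 1 h at 37 °C. Bound antibody detected with anti-human IgG-HRP and TMB, absorbance at 450 nm.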

B1: anti-HMG1 antibody S16 (antibody, V domains shown)
VH: EVQLLESGGGLVQPGGSLRLSCAASGFTFSWYSMLWVRQAPGKGLEWVSYISPSGGFTNYADSVKGRFTISRDNSKNTLYLQMNSLRAEDTAVYYCARWDYNSGWYYDHWGQGTLVTVSS
VL: DIQMTQSPDTLSLSPGERATLSCRASQSVNSRNLAWYQQKPGQAPRLLIYGASTRATGIPDRFSGSVSGTEFTLTISSLQPDDFATYYCQQYNSYFTFGQGTKLEIK
notes: also called ATCC PTA-6259
The Kd is the equilibrium constant for the complex coming apart. Regarding B1, in assay [1], the “percent inhibition of HMG1 binding to RAGE-Fc” value (“percent inhibition” below) is no less than 35%. Moreover, the binding result in assay [2] is recorded as “binds”. Besides, the Kd in assay [3] was determined as 23 nM.

B2: anti-HMG1 antibody S6 (antibody, V domains shown)
VH: EVQLLESGGGLVQPGGSLRLSCAASGFTFSWYDMSWVRQAPGKGLEWVSRISPSGGYTMYADSVKGRFTISRDNSKNTLYLQMNSLRAEDTAVYYCARLEVGATSGGTAFDIWGQGTMVTVSS
VL: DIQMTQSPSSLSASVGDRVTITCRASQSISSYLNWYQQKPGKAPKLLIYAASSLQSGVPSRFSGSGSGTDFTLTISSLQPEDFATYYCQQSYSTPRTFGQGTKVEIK
notes: also called ATCC PTA-6143
Consider B2, for which the “percent inhibition” value in assay [1] is no less than 35%. For the same molecule, the binding result in assay [4] is on record as “no binding (tested: 10 ug/mL (not on the sheet))”; in assay [2], “binds”; in assay [5], “no binding (tested: 10 ug/ml (log 1.00))”. In addition, the equilibrium dissociation constant (Kd) in assay [3] worked out at 39 nM.

B3: anti-HMG1 antibody S2 (antibody, V domains shown)
VH: EVQLLESGGGLVQPGGSLRLSCAASGFTFSGYMMVWVRQAPGKGLEWVSRISPSGGQTGYADSVKGRFTISRDNSKNTLYLQMNSLRAEDTAVYYCAREEGGSYGAFDIWGQGTMVTVSS
VL: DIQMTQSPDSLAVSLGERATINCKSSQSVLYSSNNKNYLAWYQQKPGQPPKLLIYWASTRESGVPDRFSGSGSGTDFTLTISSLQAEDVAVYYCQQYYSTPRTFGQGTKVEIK
notes: also called ATCC PTA-6142
With B3, in assay [1], the “percent inhibition” value was no less than 35%. Also, the values for the binding result in assay [4], in assay [2] and in assay [5] were “no binding (tested: 10 ug/mL (not on the sheet))”, “binds” and “no binding (tested: 10 ug/ml (log 1.00))”, respectively. Also, in assay [3], the dissociation constant (Kd) is 36 nM.

B4: anti-HMG1 antibody G4 (antibody, V domains shown)
VH: EVQLLESGGGLVQPGGSLRLSCAASGFTFSWYDMTWVRQAPGKGLEWVSSISPSGGYTKYADSVKGRFTISRDNSKNTLYLQMNSLRAEDTAVYYCTTEFYDYLDVWGKGTTVTVSS
VL: DIQMTQSPGTLSLSPGEGATLSCRASQSVSSTYLAWYQQKPGQAPRLLIYEASKRATGTPARFSGSGSGTDFTLSISSLEPEDFAVYYCQHRHNWPPQWTFGQGTKVEVK
notes: also called ATCC PTA-6258
In the case of B4, the binding result is reported as “no binding (tested: 10 ug/mL (not on the sheet))” in assay [4], “binds” in assay [2] and “no binding (tested: 10 ug/ml (log 1.00))” in assay [5]. The dissociation constant Kd in assay [3] stood at 30 nM.
